Test results reported in article PMC4619645.

Tests used:
[1] = molecular target: invariant surface glycoprotein ISG65 (Trypanosoma brucei brucei (endogenous in bloodstream-form cells, MITat 1.2, Lister 427)); assay: native gel or EMSA; Blue Native PAGE of bloodstream-form cell lysates, followed by western blotting; carried out as described in ref. 57
[2] = molecular target: invariant surface glycoprotein ISG75 (Trypanosoma brucei brucei (endogenous in bloodstream-form cells, MITat 1.2, Lister 427)); assay: as above

invariant surface glycoprotein ISG65 (natural protein)
stoichiometry N [1]: 2

invariant surface glycoprotein ISG75 (natural protein)
stoichiometry N [2]: > 2
